# Target: Xklp2 (Xenopus kinesin-like protein 2), endogenous full-length protein (Xenopus (endogenous in Xenopus egg extract)) (UniProt Q91785)
# Assay: SEC + other: sucrose gradient centrifugation
substance,measurement,value
"Xklp2 (Xenopus kinesin-like protein 2), endogenous full-length protein (from UniProt Q91785 1-1388) (natural protein)",stoichiometry N,2
